From IntAct's records for PubMed 35512704

B1: Speckle-type POZ protein (Homo sapiens), O43791 (parent)
chain: MSRVPSPPPPAEMSSGPVAESWCYTQIKVVKFSYMWTINNFSFCREEMGEVIKSSTFSSGANDKLKWCLRVNPKGLDEESKDYLSLYLLLVSCPKSEVRAKFKFSILNAKGEETKAMESQRAYRFVQGKDWGFKKFIRRDFLLDEANGLLPDDKLTLFCEVSVVQDSVNISGQNTMNMVKVPECRLADELGGLWENSRFTDCCLCVAGQEFQAHKAILAARSPVFSAMFEHEMEESKKNRVEINDVEPEVFKEMMCFIYTGKAPNLDKMADDLLAAADKYALERLKVMCEDALCSNLSVENAAEILILADLHSADQLKTQAVDFINYHASDVLETSGWKSMVVSHPHLVAEAYRSLASAQCPFLGPPRKRLKQS
partner: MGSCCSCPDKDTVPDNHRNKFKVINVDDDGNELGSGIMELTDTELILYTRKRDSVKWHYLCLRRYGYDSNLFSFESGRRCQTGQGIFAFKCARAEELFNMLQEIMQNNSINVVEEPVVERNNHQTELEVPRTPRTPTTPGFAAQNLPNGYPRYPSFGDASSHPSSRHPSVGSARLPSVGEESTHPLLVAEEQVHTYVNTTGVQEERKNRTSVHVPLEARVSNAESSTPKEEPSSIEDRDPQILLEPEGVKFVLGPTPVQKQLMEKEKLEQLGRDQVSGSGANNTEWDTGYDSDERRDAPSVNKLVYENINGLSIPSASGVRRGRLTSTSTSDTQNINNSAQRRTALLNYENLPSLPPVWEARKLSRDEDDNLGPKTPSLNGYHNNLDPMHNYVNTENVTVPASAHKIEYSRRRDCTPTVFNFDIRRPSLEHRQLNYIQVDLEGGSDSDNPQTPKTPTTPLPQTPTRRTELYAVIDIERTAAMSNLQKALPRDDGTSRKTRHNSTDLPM
B2: Speckle-type POZ protein (Homo sapiens), O43791 (parent)
chain: B1 chain
partner: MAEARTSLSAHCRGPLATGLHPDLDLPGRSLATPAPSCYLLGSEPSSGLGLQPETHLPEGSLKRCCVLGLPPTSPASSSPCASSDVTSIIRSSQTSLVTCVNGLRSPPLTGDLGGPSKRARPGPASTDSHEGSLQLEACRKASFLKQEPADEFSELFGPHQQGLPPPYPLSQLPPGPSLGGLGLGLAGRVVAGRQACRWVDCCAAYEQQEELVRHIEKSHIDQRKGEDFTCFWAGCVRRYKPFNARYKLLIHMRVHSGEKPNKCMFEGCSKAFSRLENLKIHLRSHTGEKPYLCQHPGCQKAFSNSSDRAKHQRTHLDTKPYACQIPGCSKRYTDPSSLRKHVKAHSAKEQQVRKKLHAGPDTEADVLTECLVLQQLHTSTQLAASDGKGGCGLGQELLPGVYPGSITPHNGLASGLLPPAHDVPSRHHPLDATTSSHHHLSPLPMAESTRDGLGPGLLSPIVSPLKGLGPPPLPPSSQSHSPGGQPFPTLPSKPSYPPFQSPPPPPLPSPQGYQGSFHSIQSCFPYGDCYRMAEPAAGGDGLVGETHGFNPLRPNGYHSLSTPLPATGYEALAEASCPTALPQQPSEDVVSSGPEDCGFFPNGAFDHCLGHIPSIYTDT
B3: Speckle-type POZ protein (Homo sapiens), O43791 (parent)
chain: B1 chain
partner: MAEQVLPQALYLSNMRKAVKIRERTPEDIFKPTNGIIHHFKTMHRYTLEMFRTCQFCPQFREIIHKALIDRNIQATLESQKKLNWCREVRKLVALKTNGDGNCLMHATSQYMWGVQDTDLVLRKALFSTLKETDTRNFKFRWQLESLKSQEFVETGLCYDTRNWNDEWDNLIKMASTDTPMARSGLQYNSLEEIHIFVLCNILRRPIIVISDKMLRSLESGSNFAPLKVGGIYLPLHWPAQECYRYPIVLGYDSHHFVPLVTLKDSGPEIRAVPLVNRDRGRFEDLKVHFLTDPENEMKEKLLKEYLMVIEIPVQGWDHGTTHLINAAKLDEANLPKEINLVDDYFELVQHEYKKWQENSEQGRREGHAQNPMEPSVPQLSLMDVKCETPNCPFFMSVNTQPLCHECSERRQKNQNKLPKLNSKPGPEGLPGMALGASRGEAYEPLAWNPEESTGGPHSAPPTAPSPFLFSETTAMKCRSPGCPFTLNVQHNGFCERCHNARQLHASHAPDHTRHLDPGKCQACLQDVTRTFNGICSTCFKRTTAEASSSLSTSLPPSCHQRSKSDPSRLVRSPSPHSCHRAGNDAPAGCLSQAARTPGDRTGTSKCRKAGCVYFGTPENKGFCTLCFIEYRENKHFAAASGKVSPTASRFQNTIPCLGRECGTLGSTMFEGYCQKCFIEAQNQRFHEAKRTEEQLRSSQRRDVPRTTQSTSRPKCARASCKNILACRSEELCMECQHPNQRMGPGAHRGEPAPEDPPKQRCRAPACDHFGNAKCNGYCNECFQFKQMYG
B4: Speckle-type POZ protein (Homo sapiens), O43791 (parent)
chain: B1 chain
partner: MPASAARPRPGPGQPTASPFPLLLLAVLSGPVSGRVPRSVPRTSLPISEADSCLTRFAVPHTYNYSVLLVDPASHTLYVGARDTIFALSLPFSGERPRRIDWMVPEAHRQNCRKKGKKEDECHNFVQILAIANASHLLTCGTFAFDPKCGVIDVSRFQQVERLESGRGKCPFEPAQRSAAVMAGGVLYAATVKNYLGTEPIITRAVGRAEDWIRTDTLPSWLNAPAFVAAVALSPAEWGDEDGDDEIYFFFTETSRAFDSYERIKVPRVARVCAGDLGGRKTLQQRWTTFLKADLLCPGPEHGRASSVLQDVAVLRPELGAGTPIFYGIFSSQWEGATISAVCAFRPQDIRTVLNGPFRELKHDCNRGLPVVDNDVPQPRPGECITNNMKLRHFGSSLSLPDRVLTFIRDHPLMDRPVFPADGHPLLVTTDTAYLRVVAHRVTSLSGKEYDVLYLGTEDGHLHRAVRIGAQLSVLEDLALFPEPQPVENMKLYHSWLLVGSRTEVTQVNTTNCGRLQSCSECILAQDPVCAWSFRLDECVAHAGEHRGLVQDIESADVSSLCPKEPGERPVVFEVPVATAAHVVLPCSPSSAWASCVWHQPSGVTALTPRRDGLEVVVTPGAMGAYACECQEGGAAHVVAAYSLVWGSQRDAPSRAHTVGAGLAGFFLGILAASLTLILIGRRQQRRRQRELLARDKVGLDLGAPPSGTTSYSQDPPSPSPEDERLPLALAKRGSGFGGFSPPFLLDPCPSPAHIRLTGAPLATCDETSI
B5: Speckle-type POZ protein (Homo sapiens), O43791 (parent)
chain: B1 chain
partner: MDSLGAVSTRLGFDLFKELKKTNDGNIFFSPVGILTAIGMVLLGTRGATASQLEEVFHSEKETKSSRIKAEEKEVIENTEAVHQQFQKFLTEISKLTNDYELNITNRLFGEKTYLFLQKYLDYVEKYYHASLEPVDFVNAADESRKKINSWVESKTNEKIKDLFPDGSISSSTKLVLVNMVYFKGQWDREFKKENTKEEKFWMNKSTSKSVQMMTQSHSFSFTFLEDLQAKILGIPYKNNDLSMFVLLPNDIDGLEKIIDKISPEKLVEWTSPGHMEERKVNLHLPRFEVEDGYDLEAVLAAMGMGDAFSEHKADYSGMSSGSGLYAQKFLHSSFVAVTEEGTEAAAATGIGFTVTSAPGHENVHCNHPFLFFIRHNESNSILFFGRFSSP
B6: Speckle-type POZ protein (Homo sapiens), O43791 (parent)
chain: B1 chain
partner: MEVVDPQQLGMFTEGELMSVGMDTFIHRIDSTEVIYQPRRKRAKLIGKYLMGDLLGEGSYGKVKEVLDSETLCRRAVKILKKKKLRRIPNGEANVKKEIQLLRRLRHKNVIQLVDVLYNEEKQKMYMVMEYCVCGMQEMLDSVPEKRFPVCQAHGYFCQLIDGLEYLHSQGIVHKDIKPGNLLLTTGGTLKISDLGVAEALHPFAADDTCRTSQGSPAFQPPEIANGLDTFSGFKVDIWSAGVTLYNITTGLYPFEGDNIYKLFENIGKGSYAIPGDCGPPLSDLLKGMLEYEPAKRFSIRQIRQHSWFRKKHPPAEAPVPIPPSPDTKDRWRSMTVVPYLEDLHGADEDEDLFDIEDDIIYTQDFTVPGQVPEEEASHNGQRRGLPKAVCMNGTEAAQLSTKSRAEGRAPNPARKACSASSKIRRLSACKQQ

Variants of: B1
Conditions: with frs2_human FRS2, Q8WU20

Row | effect of a mutation on the interaction | Variant
1 | with no effect | F133L

Variants of: B2
Conditions: with glis1_human GLIS1, Q8NBF1

Row | effect of a mutation on the interaction | Variant
2 | with no effect | Y87C

Variants of: B2
Conditions: with glis1_human GLIS1, Q8NBF1
Remark: another data set of the same source

Row | effect of a mutation on the interaction | Variant
3 | with no effect | F133L

Variants of: B3
Conditions: with tnap3_human TNFAIP3, P21580

Row | effect of a mutation on the interaction | Variant
4 | with no effect | Y87C

Variants of: B3
Conditions: with tnap3_human TNFAIP3, P21580
Remark: another data set of the same source

Row | effect of a mutation on the interaction | Variant
5 | with no effect | F133L

Variants of: B4
Conditions: with sem4f_human SEMA4F

Row | effect of a mutation on the interaction | Variant
6 | with no effect | F102C

Variants of: B4
Conditions: with sem4f_human SEMA4F
Remark: another data set of the same source

Row | effect of a mutation on the interaction | Variant
7 | with no effect | F133L

Variants of: B4
Conditions: with sem4f_human SEMA4F
Remark: another data set of the same source

Row | effect of a mutation on the interaction | Variant
8 | with no effect | F133V

Variants of: B4
Conditions: with sem4f_human SEMA4F
Remark: another data set of the same source

Row | effect of a mutation on the interaction | Variant
9 | with no effect | Y87C

Variants of: B5
Conditions: with spb13_human SERPINB13, Q9UIV8

Row | effect of a mutation on the interaction | Variant
10 | with no effect | F102C

Variants of: B5
Conditions: with spb13_human SERPINB13, Q9UIV8
Remark: another data set of the same source

Row | effect of a mutation on the interaction | Variant
11 | with no effect | F133V

Variants of: B5
Conditions: with spb13_human SERPINB13, Q9UIV8
Remark: another data set of the same source

Row | effect of a mutation on the interaction | Variant
12 | with no effect | F133L

Variants of: B5
Conditions: with spb13_human SERPINB13, Q9UIV8
Remark: another data set of the same source

Row | effect of a mutation on the interaction | Variant
13 | with no effect | Y87C

Variants of: B6
Conditions: with stk11_human STK11, Q15831

Row | effect of a mutation on the interaction | Variant
14 | with no effect | F133V

Variants of: B6
Conditions: with stk11_human STK11, Q15831
Remark: another data set of the same source

Row | effect of a mutation on the interaction | Variant
15 | with no effect | F133L

Variants of: B6
Conditions: with stk11_human STK11, Q15831
Remark: another data set of the same source

Row | effect of a mutation on the interaction | Variant
16 | with no effect | F102C
